The assay concerns the target CD52 (human) (UniProt P31358). The experiment in a line: cell-based or functional assay.

A value given as a limit tells only on which side of the number the result lay.

Substance CAMPATH (alemtuzumab) (antibody) showed a depletion of infused CD4CAR T cells in mouse blood, 0.1 mg/kg CAMPATH, 6 h and 48 h above 95%.
